Measurements published in patent publication EP0717753B1.

Legend:
p185 HER2/neu [1] = molecular target: p185 HER2/neu (UniProt P04626); experiment: radioimmunoassay on fixed SKBR3 cells, 125I anti-mouse Ig secondary antibody
[2] = molecular target: Epidermal Growth Factor Receptor (UniProt P00533); experiment: cell-based or functional assay
p185 HER2/neu [3] = molecular target: p185 HER2/neu (UniProt P04626); experiment: radioimmunoassay on fixed SKBR3 cells (non-target cell line for Mint5), 125I anti-mouse Ig secondary antibody
[4] = molecular target: Epidermal Growth Factor Receptor (UniProt P00533); experiment: radioimmunoassay on fixed A431 cells, 125I anti-mouse Ig secondary antibody
[5] = molecular target: Epidermal Growth Factor Receptor (UniProt P00533); experiment: radioimmunoassay on fixed A431 cells (non-target cell line for MGR6), 125I anti-mouse Ig secondary antibody

Row | Substance | % binding (p185 HER2/neu [1]) [%] | INHIBITION OF CELL PROLIFERATION: IC50 CELL LINE A431, protocol A [2] | INHIBITION OF CELL PROLIFERATION: IC50 CELL LINE A431, protocol B [2] | INHIBITION OF PROTEIN … IN CELL SYSTEM: IC50 CELL LINE A431, protocol A [2] | INHIBITION OF PROTEIN … IN CELL SYSTEM: IC50 CELL LINE A431, protocol B [2] | % binding (p185 HER2/neu [3]) [%] | % binding [4] [%] | % binding [5] [%]
1 | immunoconjugate MGR6 - Piramidatine (antibody) | 105 |  |  |  |  |  |  | 
2 | immunoconjugate Mint5 - Piramidatine (antibody) |  | 1.3e-12 | 4.2e-11 | 1e-11 | 1e-11 | 18.8 | 110 | 
3 | immunoconjugate MGR6 - Ocymoidine (antibody) | 87.5 |  |  |  |  |  |  | 15.3
4 | immunoconjugate Mint5 - Ocymoidine (antibody) |  | 1.9e-12 | 3.2e-11 | 1e-11 | 1e-11 | 9.38 | 78.5 | 
